# Data taken from the RNAGym collection of RNA variant scans (doi:10.1101/gr.219683.116).
# B1: mRNA-splicing (parent)
# chain: AGUUGCUGCUGGGAGCUCCAGCACAGUGAAAUGGACAGAAGGGCAGAGCAA
# Variants of: B1
# Experiment: exon inclusion enrichment index; higher = more inclusion; WT1 exon 5 minigene, HEK293
row,Variant,exon inclusion enrichment index
1,G5A C6G U7G C9A C18G C19U,0.00119
2,G5A C6G U7G C9A C16A U17G,0.00129
3,G5A C6G U7G C9A C16A U17C,0.00344
4,G5A C6G U7G C9A C16A U17A,0.00207
5,G5A C6G U7G C9A G41C G42A,0.00376
6,G5A C6G U7G C9A G12A G13U,0.00417
7,G5A C6G U7G C9A G12A G13C,0.0057
8,G5A C6G U7G C9A G12A G13A,0.00149
9,G5A C6G U7G C9A A45C G46A,0.000901
10,G5A C6G U7G C9A A45C G46U,0.0014
11,G5A C6G U7G C9A A45C G46C,0.00399
12,G5A C6G U7G C9A G33U,0.000815
13,G5A C6G U7G C9A G33C,0.00196
14,G5A C6G U7G C9A G33A,0.000879
15,G5A C6G U7G C9A G41A G42U,0.00291
16,G5A C6G U7G C9A G41A G42C,0.0072
17,G5A C6G U7G C9A G41A G42A,0.0013
18,G5A C6G U7G C9A G33C G34C,0.0007
19,G5A C6G U7G C9A G33C G34A,0.000739
20,G5A C6G U7G C9A G33C G34U,0.00222
21,G5A C6G U7G C9A G13A,0.0025
22,G5A C6G U7G C9A G13U,0.000555
23,G5A C6G U7G C9A G13C,0.00103
24,G5A C6G U7G C9A A39C A40C,0.0091

row,Variant,exon inclusion enrichment index
1,G5A C6G U7G C9A A39C A40G,0.0112
2,G5A C6G U7G C9A A39C A40U,0.00672
3,G5A C6G U7G C9A C44U,0.000609
4,G5A C6G U7G C9A C44G,0.00206
5,G5A C6G U7G C9A C44A,0.00167
6,G5A C6G U7G C9A G38A A39G,0.000899
7,G5A C6G U7G C9A G38A A39C,0.0024
8,G5A C6G U7G C9A G38A A39U,0.00074
9,G5A C6G U7G C9A C24G,0.00883
10,G5A C6G U7G C9A C24A,0.00195
11,G5A C6G U7G C9A C24U,0.00094
12,G5A C6G U7G C9A A35C C36U,0.000826
13,G5A C6G U7G C9A A35C C36A,0.000972
14,G5A C6G U7G C9A A35C C36G,0.00118
15,G5A C6G U7G C9A A40G G41C,0.0252
16,G5A C6G U7G C9A A40G G41U,0.00052
17,G5A C6G U7G C9A A40G G41A,0.0007
18,G5A C6G U7G C9A G33U G34C,0.00131
19,G5A C6G U7G C9A G33U G34A,0.000839
20,G5A C6G U7G C9A G33U G34U,0.000939
21,G5A C6G U7G C9A G21A,0.00299
22,G5A C6G U7G C9A G21C,0.00079
23,G5A C6G U7G C9A G21U,0.00149
24,G5A C6G U7G C9A G26A U27C,0.0139

row,Variant,exon inclusion enrichment index
1,G5A C6G U7G C9A G26A U27A,0.00661
2,G5A C6G U7G C9A G26A U27G,0.00208
3,G5A C6G U7G C9A A40U G41C,0.0209
4,G5A C6G U7G C9A A40U G41U,0.000481
5,G5A C6G U7G C9A A40U G41A,0.000658
6,G5A C6G U7G C9A A37C,0.00434
7,G5A C6G U7G C9A A37U,0.00604
8,G5A C6G U7G C9A A37G,0.00135
9,G5A C6G U7G C9A G15C,0.00583
10,G5A C6G U7G C9A G15A,0.00165
11,G5A C6G U7G C9A G15U,0.000857
12,G5A C6G U7G C9A A25G G26C,0.0234
13,G5A C6G U7G C9A A25G G26U,0.0111
14,G5A C6G U7G C9A A25G G26A,0.0192
15,G5A C6G U7G C9A A31G U32A,0.0281
16,G5A C6G U7G C9A A31G U32C,0.00508
17,G5A C6G U7G C9A A31G U32G,0.0039
18,G5A C6G U7G C9A A39U A40C,0.0022
19,G5A C6G U7G C9A A39U A40G,0.00317
20,G5A C6G U7G C9A A39U A40U,0.00155
21,G5A C6G U7G C9A C44A A45G,0.0102
22,G5A C6G U7G C9A C44A A45U,0.0154
23,G5A C6G U7G C9A C44A A45C,0.00399
24,G5A C6G U7G C9A A31U U32C,0.00119

row,Variant,exon inclusion enrichment index
1,G5A C6G U7G C9A A31U U32G,0.0027
2,G5A C6G U7G C9A A31U U32A,0.000867
3,G5A C6G U7G C9A G38C A39C,0.00466
4,G5A C6G U7G C9A G38C A39U,0.000965
5,G5A C6G U7G C9A G38C A39G,0.00244
6,G5A C6G U7G C9A C18U,0.000744
7,G5A C6G U7G C9A C18A,0.000986
8,G5A C6G U7G C9A C18G,0.00165
9,G5A C6G U7G C9A A23U C24G,0.000949
10,G5A C6G U7G C9A A23U C24A,0.000776
11,G5A C6G U7G C9A A23U C24U,0.000744
12,G5A C6G U7G C9A G28C A29U,0.00174
13,G5A C6G U7G C9A G28C A29C,0.00678
14,G5A C6G U7G C9A G28C A29G,0.0115
15,G5A C6G U7G C9A C36G A37C,0.00103
16,G5A C6G U7G C9A C36G A37G,0.00376
17,G5A C6G U7G C9A C36G A37U,0.00107
18,G5A C6G U7G C9A G21A C22U,0.00087
19,G5A C6G U7G C9A G21A C22G,0.00502
20,G5A C6G U7G C9A G21A C22A,0.000944
21,G5A C6G U7G C9A A45U,0.00141
22,G5A C6G U7G C9A A45C,0.00288
23,G5A C6G U7G C9A A45G,0.00308
24,G5A C6G U7G C9A G13A A14C,0.0219

row,Variant,exon inclusion enrichment index
1,G5A C6G U7G C9A G13A A14U,0.0021
2,G5A C6G U7G C9A G13A A14G,0.00529
3,G5A C6G U7G C9A A25C G26U,0.00184
4,G5A C6G U7G C9A A25C G26A,0.00349
5,G5A C6G U7G C9A A25C G26C,0.00427
6,G5A C6G U7G C9A C22A A23U,0.00131
7,G5A C6G U7G C9A C22A A23G,0.000928
8,G5A C6G U7G C9A C22A A23C,0.0031
9,G5A C6G U7G C9A C22U A23U,0.00262
10,G5A C6G U7G C9A C22U A23C,0.000879
11,G5A C6G U7G C9A C22U A23G,0.00203
12,G5A C6G U7G C9A C19A A20U,0.00128
13,G5A C6G U7G C9A C19A A20C,0.00131
14,G5A C6G U7G C9A C19A A20G,0.00156
15,G5A C6G U7G C9A G13C A14C,0.00967
16,G5A C6G U7G C9A G13C A14G,0.00374
17,G5A C6G U7G C9A G13C A14U,0.0025
18,G5A C6G U7G C9A G21U C22G,0.000869
19,G5A C6G U7G C9A G21U C22A,0.00074
20,G5A C6G U7G C9A G21U C22U,0.00236
21,G5A C6G U7G C9A A37U G38C,0.00236
22,G5A C6G U7G C9A A37U G38U,0.00105
23,G5A C6G U7G C9A A37U G38A,0.00155
24,G5A C6G U7G C9A G28A,0.000725

row,Variant,exon inclusion enrichment index
1,G5A C6G U7G C9A G28U,0.000687
2,G5A C6G U7G C9A G28C,0.00255
3,G5A C6G U7G C9A C36U,0.00174
4,G5A C6G U7G C9A C36G,0.000918
5,G5A C6G U7G C9A C36A,0.000983
6,G5A C6G U7G C9A A30G A31U,0.000963
7,G5A C6G U7G C9A A30G A31G,0.00115
8,G5A C6G U7G C9A A30G A31C,0.00143
9,G5A C6G U7G C9A C44U A45G,0.00135
10,G5A C6G U7G C9A C44U A45C,0.00286
11,G5A C6G U7G C9A C44U A45U,0.000761
12,G5A C6G U7G C9A G15U C16G,0.00106
13,G5A C6G U7G C9A G15U C16A,0.00611
14,G5A C6G U7G C9A G15U C16U,0.000743
15,G5A C6G U7G C9A G13U A14G,0.00052
16,G5A C6G U7G C9A G13U A14C,0.00403
17,G5A C6G U7G C9A G13U A14U,0.000524
18,G5A C6G U7G C9A C19G A20U,0.00167
19,G5A C6G U7G C9A C19G A20C,0.00232
20,G5A C6G U7G C9A C19G A20G,0.00172
21,G5A C6G U7G C9A C22G,0.00114
22,G5A C6G U7G C9A C22A,0.00351
23,G5A C6G U7G C9A C22U,0.000826
24,G5A C6G U7G C9A C44G A45G,0.00929

row,Variant,exon inclusion enrichment index
1,G5A C6G U7G C9A C44G A45U,0.00421
2,G5A C6G U7G C9A C44G A45C,0.00471
3,G5A C6G U7G C9A G21C C22G,0.00387
4,G5A C6G U7G C9A G21C C22U,0.00338
5,G5A C6G U7G C9A G21C C22A,0.00656
6,G5A C6G U7G C9A A47C G48A,0.011
7,G5A C6G U7G C9A A47C G48C,0.00224
8,G5A C6G U7G C9A A47C G48U,0.00274
9,G5A C6G U7G C9A C36A A37G,0.00191
10,G5A C6G U7G C9A C36A A37C,0.00188
11,G5A C6G U7G C9A C36A A37U,0.00282
12,G5A C6G U7G C9A A40C G41U,0.00114
13,G5A C6G U7G C9A A40C G41C,0.0197
14,G5A C6G U7G C9A A40C G41A,0.00061
15,G5A C6G U7G C9A A45U G46A,0.00219
16,G5A C6G U7G C9A A45U G46U,0.000766
17,G5A C6G U7G C9A A45U G46C,0.00134
18,G5A C6G U7G C9A G11U,0.00542
19,G5A C6G U7G C9A G11C,0.00307
20,G5A C6G U7G C9A G11A,0.000945
21,G5A C6G U7G C9A A25U G26U,0.000854
22,G5A C6G U7G C9A A25U G26A,0.00161
23,G5A C6G U7G C9A A25U G26C,0.00304
